The source of these data is PMC8298264, “Function of cofactor Akirin2 in the regulation of gene expression in model human neutrophil-like HL60 cells” (Bioscience Reports, 2021).

First the molecules themselves.
B1: sp¦P41218¦MNDA_HUMAN (protein, UniProt P41218 1-407, looked up)
Myeloid cell nuclear …: MVNEYKKILLLKGFELMDDYHFTSIKSLLAYDLGLTTKMQEEYNRIKITDLMEKKFQGVACLDKLIELAKDMPSLKNLVNNLRKEKSKVAKKIKTQEKAPVKKINQEEVGLAAPAPTARNKLTSEARGRIPVAQKRKTPNKEKTEAKRNKVSQEQSKPPGPSGASTSAAVDHPPLPQTSSSTPSNTSFTPNQETQAQRQVDARRNVPQNDPVTVVVLKATAPFKYESPENGKSTMFHATVASKTQYFHVKVFDINLKEKFVRKKVITISDYSECKGVMEIKEASSVSDFNQNFEVPNRIIEIANKTPKISQLYKQASGTMVYGLFMLQKKSVHKKNTIYEIQDNTGSMDVVGSGKWHNIKCEKGDKLRLFCLQLRTVDRKLKLVCGSHSFIKVIKAKKNKEGPMNVN
B2: sp¦P12814¦ACTN1_HUMAN (protein, UniProt P12814 1-892, looked up)
Alpha-actinin-1: MDHYDSQQTNDYMQPEEDWDRDLLLDPAWEKQQRKTFTAWCNSHLRKAGTQIENIEEDFRDGLKLMLLLEVISGERLAKPERGKMRVHKISNVNKALDFIASKGVKLVSIGAEEIVDGNVKMTLGMIWTIILRFAIQDISVEETSAKEGLLLWCQRKTAPYKNVNIQNFHISWKDGLGFCALIHRHRPELIDYGKLRKDDPLTNLNTAFDVAEKYLDIPKMLDAEDIVGTARPDEKAIMTYVSSFYHAFSGAQKAETAANRICKVLAVNQENEQLMEDYEKLASDLLEWIRRTIPWLENRVPENTMHAMQQKLEDFRDYRRLHKPPKVQEKCQLEINFNTLQTKLRLSNRPAFMPSEGRMVSDINNAWGCLEQVEKGYEEWLLNEIRRLERLDHLAEKFRQKASIHEAWTDGKEAMLRQKDYETATLSEIKALLKKHEAFESDLAAHQDRVEQIAAIAQELNELDYYDSPSVNARCQKICDQWDNLGALTQKRREALERTEKLLETIDQLYLEYAKRAAPFNNWMEGAMEDLQDTFIVHTIEEIQGLTTAHEQFKATLPDADKERLAILGIHNEVSKIVQTYHVNMAGTNPYTTITPQEINGKWDHVRQLVPRRDQALTEEHARQQHNERLRKQFGAQANVIGPWIQTKMEEIGRISIEMHGTLEDQLSHLRQYEKSIVNYKPKIDQLEGDHQLIQEALIFDNKHTNYTMEHIRVGWEQLLTTIARTINEVENQILTRDAKGISQEQMNEFRASFNHFDRDHSGTLGPEEFKACLISLGYDIGNDPQGEAEFARIMSIVDPNRLGVVTFQAFIDFMSRETADTDTADQVMASFKILAGDKNYITMDELRRELPPDQAEYCIARMAPYTGPDSVPGALDYMSFSTALYGESDL
B3: sp¦P50502¦F10A1_HUMAN (protein, UniProt P50502 1-369, looked up)
Hsc70-interacting protein: MDPRKVNELRAFVKMCKQDPSVLHTEEMRFLREWVESMGGKVPPATQKAKSEENTKEEKPDSKKVEEDLKADEPSSEESDLEIDKEGVIEPDTDAPQEMGDENAEITEEMMDQANDKKVAAIEALNDGELQKAIDLFTDAIKLNPRLAILYAKRASVFVKLQKPNAAIRDCDRAIEINPDSAQPYKWRGKAHRLLGHWEEAAHDLALACKLDYDEDASAMLKEVQPRAQKIAEHRRKYERKREEREIKERIERVKKAREEHERAQREEEARRQSGAQYGSFPGGFPGGMPGNFPGGMPGMGGGMPGMAGMPGLNEILSDPEVLAAMQDPEVMVAFQDVAQNPANMSKYQSNPKVMNLISKLSAKFGGQA
B4: sp¦Q15424¦SAFB1_HUMAN (protein, UniProt Q15424 2-915, looked up)
Scaffold attachment factor B1: AETLSGLGDSGAAGAAALSSASSETGTRRLSDLRVIDLRAELRKRNVDSSGNKSVLMERLKKAIEDEGGNPDEIEITSEGNKKTSKRSSKGRKPEEEGVEDNGLEENSGDGQEDVETSLENLQDIDIMDISVLDEAEIDNGSVADCVEDDDADNLQESLSDSRELVEGEMKELPEQLQEHAIEDKETINNLDTSSSDFTILQEIEEPSLEPENEKILDILGETCKSEPVKEESSELEQPFAQDTSSVGPDRKLAEEEDLFDSAHPEEGDLDLASESTAHAQSSKADSLLAVVKREPAEQPGDGERTDCEPVGLEPAVEQSSAASELAEASSEELAEAPTEAPSPEARDSKEDGRKFDFDACNEVPPAPKESSTSEGADQKMSSPEDDSDTKRLSKEEKGRSSCGRNFWVSGLSSTTRATDLKNLFSKYGKVVGAKVVTNARSPGARCYGFVTMSTAEEATKCINHLHKTELHGKMISVEKAKNEPVGKKTSDKRDSDGKKEKSSNSDRSTNLKRDDKCDRKDDAKKGDDGSGEKSKDQDDQKPGPSERSRATKSGSRGTERTVVMDKSKGVPVISVKTSGSKERASKSQDRKSASREKRSVVSFDKVKEPRKSRDSESHSRVRERSEREQRMQAQWEREERERLEIARERLAFQRQRLERERMERERLERERMHVEHERRREQERIHREREELRRQQELRYEQERRPAVRRPYDLDRRDDAYWPEAKRAALDERYHSDFNRQDRFHDFDHRDRGRYPDHSVDRREGSRSMMGEREGQHYPERHGGPERHGRDSRDGWGGYGSDKRMSEGRGLPPPPRRDWGDHGRREDDRSWQGTADGGMMDRDHKRWQGGERSMSGHSGPGHMMNRGGMSGRGSFAPGGASRGHPIPHGGMQGGFGGQSRGSRPSDARFTRRY
B5: sp¦P82979¦SARNP_HUMAN (protein, UniProt P82979 2-210, looked up)
SAP domain-containing …: ATETVELHKLKLAELKQECLARGLETKGIKQDLIHRLQAYLEEHAEEEANEEDVLGDETEEEETKPIELPVKEEEPPEKTVDVAAEKKVVKITSEIPQTERMQKRAERFNVPVSLESKKAARAARFGISSVPTKGLSSDNKPMVNLDKLKERAQRFGLNVSSISRKSEDDEKLKKRKERFGIVTSSAGTGTTEDTEAKKRKRAERFGIA
B6: sp¦P55145¦MANF_HUMAN (protein, UniProt P55145 25-182, looked up)
Mesencephalic …: LRPGDCEVCISYLGRFYQDLKDRDVTFSPATIENELIKFCREARGKENRLCYYIGATDDAATKIINEVSKPLAHHIPVEKICEKLKKKDSQICELKYDKQIDLSTVDLKKLRVKELKKILDDWGETCKGCAEKSDYIRKINELMPKYAPKAASARTDL
B7: sp¦O75083¦WDR1_HUMAN (protein, UniProt O75083 1-606, looked up)
WD repeat-containing protein 1: MPYEIKKVFASLPQVERGVSKIIGGDPKGNNFLYTNGKCVILRNIDNPALADIYTEHAHQVVVAKYAPSGFYIASGDVSGKLRIWDTTQKEHLLKYEYQPFAGKIKDIAWTEDSKRIAVVGEGREKFGAVFLWDSGSSVGEITGHNKVINSVDIKQSRPYRLATGSDDNCAAFFEGPPFKFKFTIGDHSRFVNCVRFSPDGNRFATASADGQIYIYDGKTGEKVCALGGSKAHDGGIYAISWSPDSTHLLSASGDKTSKIWDVSVNSVVSTFPMGSTVLDQQLGCLWQKDHLLSVSLSGYINYLDRNNPSKPLHVIKGHSKSIQCLTVHKNGGKSYIYSGSHDGHINYWDSETGENDSFAGKGHTNQVSRMTVDESGQLISCSMDDTVRYTSLMLRDYSGQGVVKLDVQPKCVAVGPGGYAVVVCIGQIVLLKDQRKCFSIDNPGYEPEVVAVHPGGDTVAIGGVDGNVRLYSILGTTLKDEGKLLEAKGPVTDVAYSHDGAFLAVCDASKVVTVFSVADGYSENNVFYGHHAKIVCLAWSPDNEHFASGGMDMMVYVWTLSDPETRVKIQDAHRLHHVSSLAWLDEHTLVTTSHDASVKEWTITY
B8: sp¦P25788¦PSA3_HUMAN (protein, UniProt P25788 2-255, looked up)
Proteasome subunit alpha …: SSIGTGYDLSASTFSPDGRVFQVEYAMKAVENSSTAIGIRCKDGVVFGVEKLVLSKLYEEGSNKRLFNVDRHVGMAVAGLLADARSLADIAREEASNFRSNFGYNIPLKHLADRVAMYVHAYTLYSAVRPFGCSFMLGSYSVNDGAQLYMIDPSGVSYGYWGCAIGKARQAAKTEIEKLQMKEMTCRDIVKEVAKIIYIVHDEVKDKAFELELSWVGELTNGRHEIVPKDIREEAEKYAKESLKEEDESDDDNM
B9: sp¦P10620¦MGST1_HUMAN (protein, UniProt P10620 1-155, looked up)
Microsomal glutathione …: MVDLTQVMDDEVFMAFASYATIILSKMMLMSTATAFYRLTRKVFANPEDCVAFGKGENAKKYLRTDDRVERVRRAHLNDLENIIPFLGIGLLYSLSGPDPSTAILHFRLFVGARIYHTIAYLTPLPQPNRALSFFVGYGVTLSMAYRLLKSKLYL
B10: sp¦P28074¦PSB5_HUMAN (protein, UniProt P28074 60-263, looked up)
Proteasome subunit beta type-5: TTTLAFKFRHGVIVAADSRATAGAYIASQTVKKVIEINPYLLGTMAGGAADCSFWERLLARQCRIYELRNKERISVAAASKLLANMVYQYKGMGLSMGTMICGWDKRGPGLYYVDSEGNRISGATFSVGSGSVYAYGVMDRGYSYDLEVEQAYDLARRAIYQATYRDAYSGGAVNLYHVREDGWIRVSSDNVADLHEKYSGSTP
B11: sp¦O60925¦PFD1_HUMAN (protein, UniProt O60925 2-122, looked up)
Prefoldin subunit 1: AAPVDLELKKAFTELQAKVIDTQQKVKLADIQIEQLNRTKKHAHLTDTEIMTLVDETNMYEGVGRMFILQSKEAIHSQLLEKQKIAEEKIKELEQKKSYLERSVKEAEDNIREMLMARRAQ
B12: sp¦Q9UKX7¦NUP50_HUMAN (protein, UniProt Q9UKX7 1-468, looked up)
Nuclear pore complex protein …: MAKRNAEKELTDRNWDQEDEAEEVGTFSMASEEVLKNRAIKKAKRRNVGFESDTGGAFKGFKGLVVPSGGGRFSGFGSGAGGKPLEGLSNGNNITSAPPFASAKAAADPKVAFGSLAANGPTTLVDKVSNPKTNGDSQQPSSSGLASSKACVGNAYHKQLAALNCSVRDWIVKHVNTNPLCDLTPIFKDYEKYLANIEQQHGNSGRNSESESNKVAAETQSPSLFGSTKLQQESTFLFHGNKTEDTPDKKMEVASEKKTDPSSLGATSASFNFGKKVDSSVLGSLSSVPLTGFSFSPGNSSLFGKDTTQSKPVSSPFPTKPLEGQAEGDSGECKGGDEEENDEPPKVVVTEVKEEDAFYSKKCKLFYKKDNEFKEKGIGTLHLKPTANQKTQLLVRADTNLGNILLNVLIPPNMPCTRTGKNNVLIVCVPNPPIDEKNATMPVTMLIRVKTSEDADELHKILLEKKDA

For one assay, the system named is human HL60 cells. Kind of assay: SWATH-MS proteomics, differential protein representation, akirin2 KO vs WT HL60 cells. The conditions noted are these: Over-represented in KO; KO vs WT HL60 cells. The assay is classed as cell-based. Summed up:
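Proteins from WT and akirin2 KO HL60 cells (n=3 biological replicates) were FASP trypsin-digested and analyzed by SWATH-MS DIA with variable windows against an IDA-derived spectral library. Identifications at 1% global FDR; quantities normalized to total area sums of all detected proteins.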
As for B1, the “Fold Change” value is 1.264 and the “Log (Fold Change)” value is 0.1017.
On to B2, for which the “Fold Change” value was found to be 1.274 and the “Log (Fold Change)” value is given as 0.1053.

The same assay, now with this note: akirin2 KO vs WT HL60 cells; sheet "Over-represented in KO".
Consider B3, for which the “Fold Change” value turned out to be 1.2518 and the “Log (Fold Change)” value was determined as 0.09753.
For the molecule B4, the “Fold Change” value is recorded as 1.249 and the “Log (Fold Change)” value came out at 0.09669.
The matching figures for B5: 1.173 and 0.06929.
The matching figures for B6: 1.173 and 0.06948.
The matching figures for B7: 1.216 and 0.0848.
Consider B8, for which the “Fold Change” value is on record as 1.227 and the “Log (Fold Change)” value came to 0.08878.
B9: the “Fold Change” value turned out to be 1.217 and the “Log (Fold Change)” value was 0.08527.
On the same counts, the results for B10 are 1.209 and 0.08243.
The matching figures for B11: 1.213 and 0.08377.
In the case of B12, the “Fold Change” value stood at 1.164 and the “Log (Fold Change)” value was determined as 0.06601.
